For this experiment, the target named is T1, 6XHis-tagged TgIST-R2 (G365-S420).
T1 chain: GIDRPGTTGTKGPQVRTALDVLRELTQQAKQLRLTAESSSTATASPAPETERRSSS
In words: nickel affinity copurification, SDS-PAGE, Coomassie blue band quantification. The conditions noted are these: chain shown with the change;; parent: est. 1.0; read off a plot.

B1: STAT1cc (STAT1 core fragment, A656C and N658C, locked dimer), tag-free, P42224 K652A (protein)
chain: MSQWYELQQLDSKFLEQVHQLYDDSFPMEIRQYLAQWLEKQDWEHAANDVSFATIRFHDLLSQLDDQYSRFSLENNFLLQHNIRKSKRNLQDNFQEDPIQMSMIIYSCLKEERKILENAQRFNQAQSGNIQSTVMLDKQKELDSKVRNVKDKVMCIEHEIKSLEDLQDEYDFKCKTLQNREHETNGVAKSDQKQEQLLLKKMYLMLDNKRKEVVHKIIELLNVTELTQNALINDELVEWKRRQQSACIGGPPNACLDQLQNWFTIVAESLQQVRQQLKKLEELEQKYTYEHDPITKNKQVLWDRTFSLFQQLIQSSFVVERQPCMPTHPQRPLVLKTGVQFTVKLRLLVKLQELNYNLKVKVLFDKDVNERNTVKGFRKFNILGTHTKVMNMEESTNGSLAAEFRHLQLKEQKNAGTRTNEGPLIVTEELHSLSFETQLCQPGLVIDLETTSLPVVVISNVSQLPSGWASILWYNMLVAEPRNLSFFLTPPCARWAQLSEVLSWQFSSVTKRGLNVDQLNMLGEKLLGPNASPDGLIPWTRFCKENINDKNFPFWLWIESILELIKKHLLPLWNDGCIMGFISKERERALLKDQQPGTFLLRFSESSREGAITFTWVERSQNGGEPDFHAVEPYTKKELSAVTFPDIIRNYAVMAAENIPENPLKYLYPNIDKDHAFGKYYSRPKEAPEPMELDGPKGTGYIKTELISVSEVHPSRLQTTDNLLPMSPEEFDEVSRIVGSVEFDSMMNTV
As for B1, the ratio to parent is 0.4.

B2: STAT1cc (STAT1 core fragment, A656C and N658C, locked dimer), tag-free, P42224 N622A (protein)
chain: MSQWYELQQLDSKFLEQVHQLYDDSFPMEIRQYLAQWLEKQDWEHAANDVSFATIRFHDLLSQLDDQYSRFSLENNFLLQHNIRKSKRNLQDNFQEDPIQMSMIIYSCLKEERKILENAQRFNQAQSGNIQSTVMLDKQKELDSKVRNVKDKVMCIEHEIKSLEDLQDEYDFKCKTLQNREHETNGVAKSDQKQEQLLLKKMYLMLDNKRKEVVHKIIELLNVTELTQNALINDELVEWKRRQQSACIGGPPNACLDQLQNWFTIVAESLQQVRQQLKKLEELEQKYTYEHDPITKNKQVLWDRTFSLFQQLIQSSFVVERQPCMPTHPQRPLVLKTGVQFTVKLRLLVKLQELNYNLKVKVLFDKDVNERNTVKGFRKFNILGTHTKVMNMEESTNGSLAAEFRHLQLKEQKNAGTRTNEGPLIVTEELHSLSFETQLCQPGLVIDLETTSLPVVVISNVSQLPSGWASILWYNMLVAEPRNLSFFLTPPCARWAQLSEVLSWQFSSVTKRGLNVDQLNMLGEKLLGPNASPDGLIPWTRFCKENINDKNFPFWLWIESILELIKKHLLPLWNDGCIMGFISKERERALLKDQQPGTFLLRFSESSREGAITFTWVERSQAGGEPDFHAVEPYTKKELSAVTFPDIIRNYKVMAAENIPENPLKYLYPNIDKDHAFGKYYSRPKEAPEPMELDGPKGTGYIKTELISVSEVHPSRLQTTDNLLPMSPEEFDEVSRIVGSVEFDSMMNTV
For B2, the ratio to parent amounted to 0.71.

B3: STAT1cc (STAT1 core fragment, A656C and N658C, locked dimer), tag-free, P42224 E625A (protein)
chain: MSQWYELQQLDSKFLEQVHQLYDDSFPMEIRQYLAQWLEKQDWEHAANDVSFATIRFHDLLSQLDDQYSRFSLENNFLLQHNIRKSKRNLQDNFQEDPIQMSMIIYSCLKEERKILENAQRFNQAQSGNIQSTVMLDKQKELDSKVRNVKDKVMCIEHEIKSLEDLQDEYDFKCKTLQNREHETNGVAKSDQKQEQLLLKKMYLMLDNKRKEVVHKIIELLNVTELTQNALINDELVEWKRRQQSACIGGPPNACLDQLQNWFTIVAESLQQVRQQLKKLEELEQKYTYEHDPITKNKQVLWDRTFSLFQQLIQSSFVVERQPCMPTHPQRPLVLKTGVQFTVKLRLLVKLQELNYNLKVKVLFDKDVNERNTVKGFRKFNILGTHTKVMNMEESTNGSLAAEFRHLQLKEQKNAGTRTNEGPLIVTEELHSLSFETQLCQPGLVIDLETTSLPVVVISNVSQLPSGWASILWYNMLVAEPRNLSFFLTPPCARWAQLSEVLSWQFSSVTKRGLNVDQLNMLGEKLLGPNASPDGLIPWTRFCKENINDKNFPFWLWIESILELIKKHLLPLWNDGCIMGFISKERERALLKDQQPGTFLLRFSESSREGAITFTWVERSQNGGAPDFHAVEPYTKKELSAVTFPDIIRNYKVMAAENIPENPLKYLYPNIDKDHAFGKYYSRPKEAPEPMELDGPKGTGYIKTELISVSEVHPSRLQTTDNLLPMSPEEFDEVSRIVGSVEFDSMMNTV
Regarding B3, the ratio to parent came to 0.75.

B4: STAT1cc (STAT1 core fragment, A656C and N658C, locked dimer), tag-free, P42224 Q594A (protein)
chain: MSQWYELQQLDSKFLEQVHQLYDDSFPMEIRQYLAQWLEKQDWEHAANDVSFATIRFHDLLSQLDDQYSRFSLENNFLLQHNIRKSKRNLQDNFQEDPIQMSMIIYSCLKEERKILENAQRFNQAQSGNIQSTVMLDKQKELDSKVRNVKDKVMCIEHEIKSLEDLQDEYDFKCKTLQNREHETNGVAKSDQKQEQLLLKKMYLMLDNKRKEVVHKIIELLNVTELTQNALINDELVEWKRRQQSACIGGPPNACLDQLQNWFTIVAESLQQVRQQLKKLEELEQKYTYEHDPITKNKQVLWDRTFSLFQQLIQSSFVVERQPCMPTHPQRPLVLKTGVQFTVKLRLLVKLQELNYNLKVKVLFDKDVNERNTVKGFRKFNILGTHTKVMNMEESTNGSLAAEFRHLQLKEQKNAGTRTNEGPLIVTEELHSLSFETQLCQPGLVIDLETTSLPVVVISNVSQLPSGWASILWYNMLVAEPRNLSFFLTPPCARWAQLSEVLSWQFSSVTKRGLNVDQLNMLGEKLLGPNASPDGLIPWTRFCKENINDKNFPFWLWIESILELIKKHLLPLWNDGCIMGFISKERERALLKDAQPGTFLLRFSESSREGAITFTWVERSQNGGEPDFHAVEPYTKKELSAVTFPDIIRNYKVMAAENIPENPLKYLYPNIDKDHAFGKYYSRPKEAPEPMELDGPKGTGYIKTELISVSEVHPSRLQTTDNLLPMSPEEFDEVSRIVGSVEFDSMMNTV
For the molecule B4, the ratio to parent was determined as 0.79.

B5: STAT1cc (STAT1 core fragment, A656C and N658C, locked dimer), tag-free, P42224 R619A (protein)
chain: MSQWYELQQLDSKFLEQVHQLYDDSFPMEIRQYLAQWLEKQDWEHAANDVSFATIRFHDLLSQLDDQYSRFSLENNFLLQHNIRKSKRNLQDNFQEDPIQMSMIIYSCLKEERKILENAQRFNQAQSGNIQSTVMLDKQKELDSKVRNVKDKVMCIEHEIKSLEDLQDEYDFKCKTLQNREHETNGVAKSDQKQEQLLLKKMYLMLDNKRKEVVHKIIELLNVTELTQNALINDELVEWKRRQQSACIGGPPNACLDQLQNWFTIVAESLQQVRQQLKKLEELEQKYTYEHDPITKNKQVLWDRTFSLFQQLIQSSFVVERQPCMPTHPQRPLVLKTGVQFTVKLRLLVKLQELNYNLKVKVLFDKDVNERNTVKGFRKFNILGTHTKVMNMEESTNGSLAAEFRHLQLKEQKNAGTRTNEGPLIVTEELHSLSFETQLCQPGLVIDLETTSLPVVVISNVSQLPSGWASILWYNMLVAEPRNLSFFLTPPCARWAQLSEVLSWQFSSVTKRGLNVDQLNMLGEKLLGPNASPDGLIPWTRFCKENINDKNFPFWLWIESILELIKKHLLPLWNDGCIMGFISKERERALLKDQQPGTFLLRFSESSREGAITFTWVEASQNGGEPDFHAVEPYTKKELSAVTFPDIIRNYKVMAAENIPENPLKYLYPNIDKDHAFGKYYSRPKEAPEPMELDGPKGTGYIKTELISVSEVHPSRLQTTDNLLPMSPEEFDEVSRIVGSVEFDSMMNTV
As to B5, the ratio to parent amounted to 0.62.

The values above are taken from paper PMC9279507.
